In the DeepSol protein solubility set:

Assay: soluble on expression in E. coli; label from the status in PepcDB or PDB records

Sequence | soluble on expression in E. coli
MKKVKLIGTLDYGKYRYPKNHPLKIPRVSLLLRFKDAMNLIDEKELIKSRPATKEELLLFHTEDYINTLMEAERSQSVPKGAREKYNIGGYENPVSYAMFTGSSLATGSTVQAIEEFLKGNVAFNPAGGMHHAFKSRANGFCYINNPAVGIEYLRKKGFKRILYIDLDAHHCDGVQEAFYDTDQVFVLSLHQSPEYAFPFEKGFLEEIGEGKGKGYNLNIPLPKGLNDNEFLFALEKSLEIVKEVFEPEVYLLQLGTDPLLEDYLSKFNLSNVAFLKAFNIVREVFGEGVYLGGGGYHPYALARAWTLIWCELSGREVPEKLNNKAKELLKSIDFEEFDDEVDRSYMLETLKDPWRGGEVRKEVKDTLEKAKASS | soluble
MKKYIALAWVCLALTDVMAQKQKVVEKVVDEDYYPVEGAVVTLKRTNQNATTDKDGVFILEEVPVYFDSLQVKKGKRSGYIDLPMRIQMRTQVMQRFSWSVKAGIGAGKFMQGPESKLKDGFSIYGGVGADIRMSKHWAFQPSLLLVSRKMKGYDFYGYYAENNGDGSSSASYEQVSGTYNPFYLEIPLLFALKYRVGNDMNLVFSFGPYIDLGLSGDEKREYIKHYYDTMEGNKTESVTNSRSLFGKRFTGGFAYGIGVEYGRFLIGGTGRVGCTSWNHSEGFIDVAFEIGYRF | not soluble
MKLAIIIPVYNAEETIKRAILSVDTSVPYEIICINDGSTDQTQHVLTELQQKHPHIKVIHQSNQGAARSRNVGLEAMSEDVDAFLFLDADDEFLPSRIDLMVNAFNKNKETDVVIGQMARDVNGEWQVISTHQSMVKDAIVTLDRKPDILQSIGPGAKLFSSKYAGLRFDEDVVFCEEHTFIVKAFSKARDIQLIPNIVYGYNEREGSVTAQRADTFLPYMSDALKVRQRVMELLLLLDEKIYYSYRMDNLIVSYLIQAHLKKNNKITQSLLESVIEYMKAMQHTHYSGEAMFRIVRAVEQSATHWTKPLYLQWKKALSEVGIGRPGLIRFKLQVIPKKISFSGKESLKRIFKK | not soluble
MKLATKKNGTRDGLLMVVSKDLTRCVPATEVFHPRNLAPTMQVALDNWEAVAPQLEEIYTALNNGTVAGFEEFEAHYCESPLPRAYQWADGSAYVNHVELVRKARGAEMPESFWTDPLMYQGGSDAFIGPCDNIEFASDEWGIDFEGEVAVVTGDVPMGASIAEAQESIRLIMLVNDVSLRGLIPAELAKGFGFFQSKPSSAFSPVAVTPDELGDEWYENKVHLPLVSTYNHKPFGRPNAGVDMTFDFADLIVHATKTRPLSAGAIIGSGTVSNKQGTDHGTSIEEGGVGYSCIAEVRMIETIRDGKPTTNFMSFGDSIKLEMFDVEGNTIFGAIDQQVSQYLKH | not soluble
MKLDAKSTIETGKAILGIELGSTRIKAVLIDQENKPIAQGSHTWENQLVNGLWTYSIDAIWSGLQDCYADLRSNVKKLYDTEIETLAAIGVSAMMHGYMPFNEKEEILVPFRTWRNTNTGRAAAELSELFVYNIPLRWSISHLYQAILDNEAHVKDIKFLTTLAGYVHWQITGEKVLGIGDASGMLPIDPTTNNYSAEMVAKFNNLIASKEYSWKLEDILPKVLSAGENAGVLTPEGCKKLDASGHLKAGIPVCPPEGDA | not soluble
MKLEASLKHFSPQGMHISDSVKETSPDRLTGTDIMVAIGTTSSRARFGLAAFFGKAGISKTDEQLAVQALVRHAMDTAPKNVRKAAGGEFGWCMLVLAQFAFAEYSRSAATSVTCHTCKGSGRITRTQTTRKVSYPWGKAPYWASKSRAVRPSDWEKWTEVTEIVPAVCEACDGKGTISARCRCGGKGEVLDRIATKERGVPVFKTCERCSGEGYSRVSSATVHRAILKRLPDLHQSSWSRNWKPFYEMLVDVLYKGERQAASEFEKATAY | not soluble
MKLEVLPLDQKTFSAYGDVIETQEREFFHINNGLVERYHDLAKVEVLEQDRTLISINRAQPAAMPIVVHELERHPLGTQAFVPMNGEAFVVIVALGDDKPDLSTLRAFISNGRQGVNYHRNVWHHPLFAWQTVTDFLTVDRGGSDNCDVESIPTHELCFALEHHHHHH | soluble
MKLIVVTTPTFFVEEDKIITALFEEGLDILHLRKPETPAMYSERLLTLIPEKYHRRIVTHEHFYLKEEFNLMGIHLNARNPSEPHDYAGHVSCSCHSVEEVKNRKHFYDYVFMSPIYDSISKVNYYSTYTAEELREAQKAKIIDSKVMALGGINEDNLLEIKDFGFGGAVVLGDLWNKFDACLDQNYLAVIEHFKKLKKLADLEHHHHHH | soluble
MKLLQKQQQQGGGDNQDQNKENNHDKKQPQNNPNNNNQGGQQQPQPSKQDNTQKDQQPRQNEMSRESAEKILKAYEQDEEKTREKVEQMRKQRMKQQKGNSTKQW | not soluble
MKLPVPSPMRLAVTHEGRSIIYIPSPEYAVASGRLEPAWLEVFYNPAMEFNRDVSVVAASALRRTGLLTRSGVAFDAHAGVGVRGVRYAVEAGYVKVIMNDINPKASMLAALNARANGLEPGSYMIFNKESNSLMFHLSRERPTPVSLIDIDPYGSPAPFVDAALALSGKGTVVAMTATDLAVLEGGKARAAVRRYMLRSVSKTPVSKETGLRVLLGYVARVAAAHDKAVKPLLAYYADHYYRVYVAVERGARRSDSMLEENLGRLVYCPETGVALALSYAEDPASACGGSYVVAADPAWIGSLGDQAFLEAMLNIAVEAVWLGTRPRVEKLLNTLHGEAPLSPRSIYVSLTSVASKARVNTPKKSKVVELLRSMGYRAVATHFSGEGVRTDAPWGEVLEAVVKLGSSG | soluble
MKLQLALDELTLPEAMVFMDKVVDDVDIIEVGTPFLIREGVNAIKAIKEKYPHKEVLADAKIMDGGHFESQLLFDAGADYVTVLGVTDVLTIQSCIRAAKEAGKQVVVDMICVDDLPARVRLLEEAGADMLAVHTGTDQQAAGRKPIDDLITMLKVRRKARIAVAGGISSQTVKDYALLGPDVVIVGSAITHAADPAGEARKISQVLLQHH | soluble
MKLTDYVKQVSLEDFGRPFIHHVQWNRRLRSTGGRFFPKDGHLDFNPKVYQELGLDVFRKIVRHELCHYHLYFQGKGYQHKDRDFKELLKAVDGLRFVPSLPNSNSKPIKLYRCQSCQQRYQRKRRIDTQRYRCGLCRGKLLLVNQPEDLEHHHHHH | not soluble
MKLVKLSLVAALAAGAFSAANATPLEEAIKDVDVSGVLRYRYDTGNFDKNFVNNSNLNNSKQDHKYRAQVNFSAAIADNFKAFVQFDYNAADGGYGANGIKNDQKGLFVRQLYLTYTNEDVATSVIAGKQQLNLIWTDNAIDGLVGTGVKVVNNSIDGLTLAAFAVDSFMAAEQGADLLEHSNISTTSNQAPFKVDSVGNLYGAAAVGSYDLAGGQFNPQLWLAYWDQVAFFYAVDAAYSTTIFDGINWTLEGAYLGNSLDSELDDKTHANGNLFALKGSIEVNGWDASLGGLYYGDKEKASTVVIEDQGNLGSLLAGEEIFYTTGSRLNGDTGRNIFGYVTGGYTFNETVRVGADFVYGGTKTEAANHLGGGKKLEAVARVDYKYSPKLNFSAFYSYVNLDQGVNTNESADHSTVRLQALYKF | soluble
MKMAKSEDERLAEEWAAALGEDPNAPDIDVDEILAAPLEELKNTAPPITDDERRKLDTIMDIPVTISMEVGRSKISIRNLLQLNQGSVVELDRIAGESLDVMVNGTLIAHGEVVVVNDKFGIRLTDVISQTERIKKLR | not soluble
MKMKLTAAIIAAFVIIMGCAGGPKASKADELDLAIRDTSDYLNDNIPKGNKIIILNIQSDYASLSDYIIDELIANAVNDKIFKVVDRAQLEQIRAELNFQWSGEVDDKSALEIGKFLGAQTIVTGAISQLADRHRMRIRALNVKTAEVQGQYNRNITTSPMITALMKGGKSTNTSYGGKTRSGNSSGTTGGTSGAKTSQPATPEYKIGDTGPAGGLIFYDKKNNRNGWRYLEAAPANTERETFMSGDSPYSLGNKNLVGDGFENTQNMMKSIEKKGGGIGSAPYYCTNLVVNGFNDWYLPSFDEISLMYTNLHANNLGSFKQRDYWHSSEHGVVWGTYSFAKGEKGQHSYAYDNDKRLTRACRRF | not soluble
MKMNEEKAVVVFSGGQDSTTCLFWAKKQFGEVEAVTFDYGQRHRREIDVAQAIADELGVRHTVLDLSLLGQLAPNALTRRDIAIEQKEGELPTTFVDGRNLLFLSFAAVFAKQRGARHIVTGVCETDFSGYPDCRDVFIKSLNVTLNLAMDYEFVIHTPLMWLTKAETWKLADELGALEFIRTKTLTCYNGIIADGCGECPACVLRKRGLDEYLREKEGVESR | not soluble
